Earlier results, collected in patent publication US20200378979.

How the values were obtained:
[1] = molecular target: T1, thrombin (cited work) (UniProt P00734+P00734); test: FP; details: 5'-FAM; CITED Van Riesen et al. 2018
[2] = molecular target: T1, thrombin (cited work); test: ITC; details: CITED Pagano et al. 2008

For GGTTGGTGTGGTTGG [5'-FAM-TBA], the Kd [1] is listed as 4900 nM.
For GGTTGGTGTGGTTGG [native TBA], the Kd [2] is given as 330 nM.
